Source: publication PMC8864165 (2022)
Square brackets hold non-standard residues; d marks the D form. Ends that are not written are not given here. Ac6c = NC1(C(=O)O)CCCCC1

What was measured:
E. coli DnaK = E. coli DnaK (Escherichia coli, UniProt P0A6Y8 1-638); assay: FP
S. aureus DnaK = S. aureus DnaK (Staphylococcus aureus, UniProt P99110 1-610); assay: FP

B1: ARV-1502 (peptide)
peptide: [Ac6c]RPDKPRPYLPRPRPPRPVR-NH2
modifications: N-terminus assumed
SMILES: CC(C)C[C@H](NC(=O)[C@H](Cc1ccc(O)cc1)NC(=O)[C@@H]1CCCN1C(=O)[C@H](CCCNC(=N)N)NC(=O)[C@@H]1CCCN1C(=O)[C@H](CCCCN)NC(=O)[C@H](CC(=O)O)NC(=O)[C@@H]1CCCN1C(=O)[C@H](CCCNC(=N)N)NC(=O)C1(N)CCCCC1)C(=O)N1CCC[C@H]1C(=O)N[C@@H](CCCNC(=N)N)C(=O)N1CCC[C@H]1C(=O)N[C@@H](CCCNC(=N)N)C(=O)N1CCC[C@H]1C(=O)N1CCC[C@H]1C(=O)N[C@@H](CCCNC(=N)N)C(=O)N1CCC[C@H]1C(=O)N[C@H](C(=O)N[C@@H](CCCNC(=N)N)C(N)=O)C(C)C
With B1 the Ki (E. coli DnaK) was 400 nM and the Ki (S. aureus DnaK) was 13700 nM.

B2: peptide 102 (peptide)
peptide: [Ac6c]RPFFPRPYLPLPRPPRPVR-NH2
modifications: N-terminus assumed
SMILES: CC(C)C[C@H](NC(=O)[C@H](Cc1ccc(O)cc1)NC(=O)[C@@H]1CCCN1C(=O)[C@H](CCCNC(=N)N)NC(=O)[C@@H]1CCCN1C(=O)[C@H](Cc1ccccc1)NC(=O)[C@H](Cc1ccccc1)NC(=O)[C@@H]1CCCN1C(=O)[C@H](CCCNC(=N)N)NC(=O)C1(N)CCCCC1)C(=O)N1CCC[C@H]1C(=O)N[C@@H](CC(C)C)C(=O)N1CCC[C@H]1C(=O)N[C@@H](CCCNC(=N)N)C(=O)N1CCC[C@H]1C(=O)N1CCC[C@H]1C(=O)N[C@@H](CCCNC(=N)N)C(=O)N1CCC[C@H]1C(=O)N[C@H](C(=O)N[C@@H](CCCNC(=N)N)C(N)=O)C(C)C
For B2, the Ki (E. coli DnaK) was 310 nM and the Ki (S. aureus DnaK) was 4200 nM.

B3: peptide #2 (peptide)
chain: [Ac6c]RPKKPRPYLPRPRPPRPVR-NH2
modifications: N-terminus assumed
SMILES: CC(C)C[C@H](NC(=O)[C@H](Cc1ccc(O)cc1)NC(=O)[C@@H]1CCCN1C(=O)[C@H](CCCNC(=N)N)NC(=O)[C@@H]1CCCN1C(=O)[C@H](CCCCN)NC(=O)[C@H](CCCCN)NC(=O)[C@@H]1CCCN1C(=O)[C@H](CCCNC(=N)N)NC(=O)C1(N)CCCCC1)C(=O)N1CCC[C@H]1C(=O)N[C@@H](CCCNC(=N)N)C(=O)N1CCC[C@H]1C(=O)N[C@@H](CCCNC(=N)N)C(=O)N1CCC[C@H]1C(=O)N1CCC[C@H]1C(=O)N[C@@H](CCCNC(=N)N)C(=O)N1CCC[C@H]1C(=O)N[C@H](C(=O)N[C@@H](CCCNC(=N)N)C(N)=O)C(C)C
B3 showed a Ki (E. coli DnaK) of 600 nM.
